{"source": "IntAct's records for PubMed 26836588", "parents": {"B1": {"name": "E3 ubiquitin-protein ligase TRIM22 (Homo sapiens), Q8IYM9 (parent)", "chain": "MDFSVKVDIEKEVTCPICLELLTEPLSLDCGHSFCQACITAKIKESVIISRGESSCPVCQTRFQPGNLRPNRHLANIVERVKEVKMSPQEGQKRDVCEHHGKKLQIFCKEDGKVICWVCELSQEHQGHQTFRINEVVKECQEKLQVALQRLIKEDQEAEKLEDDIRQERTAWKNYIQIERQKILKGFNEMRVILDNEEQRELQKLEEGEVNVLDNLAAATDQLVQQRQDASTLISDLQRRLRGSSVEMLQDVIDVMKRSESWTLKKPKSVSKKLKSVFRVPDLSGMLQVLKELTDVQYYWVDVMLNPGSATSNVAISVDQRQVKTVRTCTFKNSNPCDFSAFGVFGCQYFSSGKYYWEVDVSGKIAWILGVHSKISSLNKRKSSGFAFDPSVNYSKVYSRYRPQYGYWVIGLQNTCEYNAFEDSSSSDPKVLTLFMAVPPCRIGVFLDYEAGIVSFFNVTNHGALIYKFSGCRFSRPAYPYFNPWNCLVPMTVCPPSS"}}, "data": [{"variants_of": "B1", "conditions": "with nod2_human NOD2, Q9HC29", "values": [{"variant": "MDFSVKVDIEKEVTCPICLELLTEPLSLDCGHSFCQACITAKIKESVIISRGESSCPVCQTRFQPGNLRPNRHLANIVERVKEVKMSPQEGQKRDVCEHHGKKLQIFCKEDGKVICWVCELSQEHQGHQTFRINEVVKECQEKLQVALQTLIKEDQEAEKLEDDIRQERTAWKNYIQIERQKILKGFNEMRVILDNEEQRELQKLEEGEVNVLDNLAAATDQLVQQRQDASTLISDLQRRLRGSSVEMLQDVIDVMKRSESWTLKKPKSVSKKLKSVFRVPDLSGMLQVLKELTDVQYYWVDVMLNPGSATSNVAISVDQRQVKTVRTCTFKNSNPCDFSAFGVFGCQYFSSGKYYWEVDVSGKIAWILGVHSKISSLNKRKSSGFAFDPSVNYSKVYSRYRPQYGYWVIGLQNTCEYNAFEDSSSSDPKVLTLFMAVPPCRIGVFLDYEAGIVSFFNVTNHGALIYKFSGCRFSRPAYPYFNPWNCLVPMTVCPPSS", "note": "[R150T]", "effect of a mutation on the interaction": "with no effect"}, {"variant": "MDFSVKVDIEKEVTCPICLELLTEPLSLDCGHSFCQACITAKIKESVIISRGESSCPVCQTRFQPGNLRPNRHLANIVERVKEVKMSPQEGQKRDVCEHHGKKLQIFCKEDGKVICWVCELSQEHQGHQTFRINEVVKECQEKLQVALQRLIKEDQEAEKLEDDIRQERTAWKNYIQIERQKILKGFNEMRVILDNEEQRELQKLEEGEVNVLDNLAAATDQLVQQRQDASTLISDLQRRLRGSSVEMLQDVIDVMKRSESWTLKKPKSVSKKLKSVFRVPDLSGMLQVLKELTDVQYYWVDVMLNPGSATSNVAISVDQKQVKTVRTCTFKNSNPCDFSAFGVFGCQYFSSGKYYWEVDVSGKIAWILGVHSKISSLNKRKSSGFAFDPSVNYSKVYSRYRPQYGYWVIGLQNTCEYNAFEDSSSSDPKVLTLFMAVPPCRIGVFLDYEAGIVSFFNVTNHGALIYKFSGCRFSRPAYPYFNPWNCLVPMTVCPPSS", "note": "[R321K]", "effect of a mutation on the interaction": "decreasing interaction strength"}, {"variant": "MDFSVKVDIEKEVTCPICLELLTEPLSLDCGHSFCQACITAKIKESVIISRGESSCPVCQTRFQPGNLRPNRHLANIVERVKEVKMSPQEGQKRDVCEHHGKKLQIFCKEDGKVICWVCELSQEHQGHQTFRINEVVKECQEKLQVALQRLIKEDQEAEKLEDDIRQERTAWKNYIQIERQKILKGFNEMRVILDNEEQRELQKLEEGEVNVLDNLAAATDQLVQQRQDASTLISDLQRRLRGSSVEMLQDVIDVMKRSESWTLKKPKSVSKKLKSVFRVPDLSGMLQVLKELTDVQYYWVDVMLNPGSATSNVAISVDQRQVKTVRTCTFKNSNPCDFSAFGVFGCQYFSSGKYYWEVDVSGKIAWILGVHSKISSLNKRKSSGFAFDPSVNYSKVYSRYRPQYGYWVIGLQNTCEYNAFEDSSSSDPKVLTLFMAVPPCCIGVFLDYEAGIVSFFNVTNHGALIYKFSGCRFSRPAYPYFNPWNCLVPMTVCPPSS", "note": "[R442C]", "effect of a mutation on the interaction": "disrupting interaction strength"}, {"variant": "MDFSVKVDIEKEVTCPICLELLTEPLSLDCGHSFCQACITAKIKESVIISRGESSCPVCQTRFQPGNLRPNRHLANIVERVKEVKMSPQEGQKRDVCEHHGKKLQIFCKEDGKVICWVCELSQEHQGHQTFRINEVVKECQEKLQVALQRLIKEDQEAEKLEDDIRQERTAWKNYIQIERQKILKGFNEMRVILDNEEQRELQKLEEGEVNVLDNLAAATDQLVQQRQDASTLISDLQRRLRGLSVEMLQDVIDVMKRSESWTLKKPKSVSKKLKSVFRVPDLSGMLQVLKELTDVQYYWVDVMLNPGSATSNVAISVDQRQVKTVRTCTFKNSNPCDFSAFGVFGCQYFSSGKYYWEVDVSGKIAWILGVHSKISSLNKRKSSGFAFDPSVNYSKVYSRYRPQYGYWVIGLQNTCEYNAFEDSSSSDPKVLTLFMAVPPCRIGVFLDYEAGIVSFFNVTNHGALIYKFSGCRFSRPAYPYFNPWNCLVPMTVCPPSS", "note": "[S244L]", "effect of a mutation on the interaction": "decreasing interaction strength"}]}]}
